The results in this text go back to patent US20240400703A1 (Genmab, published 2024).

Experiment [1] has as its target T1, human OX40 expressed on cells (human, UniProt P43489 29-277).
T1 construct: also called CD134; TNFRSF4
T1 sequence: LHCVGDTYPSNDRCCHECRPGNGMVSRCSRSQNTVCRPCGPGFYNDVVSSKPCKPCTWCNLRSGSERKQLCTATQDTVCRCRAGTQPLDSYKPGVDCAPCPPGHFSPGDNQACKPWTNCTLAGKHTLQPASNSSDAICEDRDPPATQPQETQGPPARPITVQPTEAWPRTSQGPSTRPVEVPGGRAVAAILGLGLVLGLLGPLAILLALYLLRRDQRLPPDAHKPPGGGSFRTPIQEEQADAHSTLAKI
The experiment is described as follows: flow cytometry, human T cells activated 2 days with anti-CD3/CD28 beads, 2 µg/mL sOX40L, anti-mouse Fc detection. As to the method: Stimulated PBMCs were pelleted, resuspended in FACS buffer 2 (DPBS with 2% heat-inactivated FBS [Sigma-Aldrich, cat. no. F7524] and 2 mM EDTA [Sigma-Aldrich, cat. no. 03690]), and seeded (100,000 cells/well) in round-bottom 96-well plates (VWR International GmbH, cat. no. 734-197). […] Next, cells were washed twice in FACS buffer, and incubated with 30 μL of the antibody panel described in Table 11 diluted in FACS buffer 2 containing 1:1,500 Fixable Viability Stain eFluor 780 at 4° C. for 20 min, protected from light. The cells were subsequently washed twice with 120-150 μL FACS buffer 2 and measured on a BD FACSCelesta flow cytometer using a BD High Throughput sampler and subsequent analysis was done using FlowJo software.
(Flow cytometry measures light scatter and fluorescence of single cells or particles in a stream.)

Experiment [2] has as its target T2, human OX40 with mouse CRD4 (human with mouse CRD4, UniProt P43489 29-277).
T2 construct: on ExpiCHO-S cells; also called OX40-CRD4mm; Shuffle 4
T2 chain: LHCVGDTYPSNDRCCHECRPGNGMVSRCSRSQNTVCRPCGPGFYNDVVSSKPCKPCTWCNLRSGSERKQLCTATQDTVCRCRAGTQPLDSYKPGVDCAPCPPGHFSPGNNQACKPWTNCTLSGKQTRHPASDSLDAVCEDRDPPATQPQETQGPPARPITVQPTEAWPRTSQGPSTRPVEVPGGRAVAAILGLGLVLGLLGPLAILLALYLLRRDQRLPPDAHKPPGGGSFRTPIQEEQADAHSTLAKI
The experiment is described as follows: flow cytometry, transfected ExpiCHO-S cells, gMFI (PE). How it is done: The four shuffle constructs, as well as wild-type human and mouse OX40 were transiently expressed on ExpiCHO-S cells using the ExpiFectamine™ CHO Transfection Kit (ThermoFisher, cat. no. A29131), according to the manufacturer's protocol. […] Next, cells were washed twice in FACS buffer 1, were resuspended in a 30 μL solution of viability marker ToPro-3 (Invitrogen, cat. no. T3605, diluted 1:10,000) in FACS buffer 1 supplemented with 2 mM EDTA, and were analyzed on an iQue Screener Plus (Intellicyt Corporation, USA). Data were analyzed using FlowJo software and visualized using GraphPad Prism.

Experiment [3] deals with T3, human OX40 with mouse CRD2 (human with mouse CRD2, UniProt P43489 29-277).
T3 construct: on ExpiCHO-S cells; also called OX40-CRD2mm; Shuffle 2
T3 chain: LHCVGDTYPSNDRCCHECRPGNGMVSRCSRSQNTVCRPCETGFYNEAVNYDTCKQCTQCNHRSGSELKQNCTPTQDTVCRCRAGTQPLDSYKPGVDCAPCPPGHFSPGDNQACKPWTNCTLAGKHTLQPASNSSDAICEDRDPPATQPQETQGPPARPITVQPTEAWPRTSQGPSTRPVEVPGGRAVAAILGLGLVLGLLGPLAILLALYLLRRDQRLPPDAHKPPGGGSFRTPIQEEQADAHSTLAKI
Described as above.

Experiment [4] concerns the target T4, cynomolgus monkey OX40 expressed on HEK293F cells (cynomolgus monkey (Macaca fascicularis), UniProt P43489 29-277 (human entry)).
T4 construct: full-length entry
T4 chain: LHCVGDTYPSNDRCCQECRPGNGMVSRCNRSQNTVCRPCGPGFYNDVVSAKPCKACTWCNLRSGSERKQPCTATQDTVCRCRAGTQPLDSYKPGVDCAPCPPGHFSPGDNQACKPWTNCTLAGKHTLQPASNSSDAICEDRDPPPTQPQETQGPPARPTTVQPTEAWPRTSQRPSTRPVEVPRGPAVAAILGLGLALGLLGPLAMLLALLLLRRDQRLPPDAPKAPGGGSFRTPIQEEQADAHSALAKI
The experiment is described as follows: flow cytometry, OX40-transfected HEK293F cells, gMFI (PE). As to the method:
(§1) Transfected cells were seeded in 96-well plates (30,000 cells/well; ThermoFisher, cat. no. 163320) for sequential incubations, with washing steps in between using fluorescence-activated cell sorting (FACS) buffer 1 (phosphate buffered saline [PBS; Lonza, cat. no. BE17-517Q] supplemented with 0.1% bovine serum albumin [BSA; Roche, cat. no. 10735086001] and 0.02% sodium azide [NaN₃; Bio-World, cat. no. 41920044-3]) supplemented with 2 mM ethylenediaminetetraacetic acid (EDTA; Sigma-Aldrich, cat. no. 03690). […] Cells were then washed using EDTA-supplemented FACS buffer 1, resuspended in a 30 μL solution of viability marker ToPro-3 (Invitrogen, cat. no. T3605, diluted 1:10,000) in EDTA-supplemented FACS buffer 1, and subsequently analyzed on an iQue® 3 flow cytometer (Satorius). Data were analyzed using FlowJo software and were visualized using GraphPad Prism.

Experiment [5] addresses T1, human OX40 expressed on cells. Described as above. As to the method:
as §1

Experiment [6] addresses T5, human OX40 with mouse CRD3 (human with mouse CRD3, UniProt P43489 29-277).
T5 construct: on ExpiCHO-S cells; also called OX40-CRD3mm; Shuffle 3
T5 chain: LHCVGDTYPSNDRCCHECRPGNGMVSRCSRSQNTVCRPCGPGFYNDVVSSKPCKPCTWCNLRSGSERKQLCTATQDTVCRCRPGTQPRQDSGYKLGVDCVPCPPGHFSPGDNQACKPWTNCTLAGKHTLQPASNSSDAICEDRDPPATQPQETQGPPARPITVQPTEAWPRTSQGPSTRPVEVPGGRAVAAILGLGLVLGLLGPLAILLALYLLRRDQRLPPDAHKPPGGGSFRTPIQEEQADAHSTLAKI
Kind of experiment: flow cytometry, transfected ExpiCHO-S cells, gMFI (PE).

Experiment [7] has as its target T6, human OX40 with mouse CRD1 (human with mouse CRD1, UniProt P43489 29-277).
T6 construct: on ExpiCHO-S cells; also called OX40-CRD1mm; Shuffle 1
T6 chain: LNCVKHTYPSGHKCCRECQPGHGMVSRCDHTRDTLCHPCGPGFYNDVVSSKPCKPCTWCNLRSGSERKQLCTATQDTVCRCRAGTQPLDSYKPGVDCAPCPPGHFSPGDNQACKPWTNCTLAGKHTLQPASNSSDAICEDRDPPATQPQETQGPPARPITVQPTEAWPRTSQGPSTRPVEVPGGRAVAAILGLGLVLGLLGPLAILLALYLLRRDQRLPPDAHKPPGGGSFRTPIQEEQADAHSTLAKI
Described as above.

The target in experiment [8] is T7, human FcγRIa expressed on cells (human, UniProt P12314 16-374).
T7 construct: whole, on cells; also called FcγR1a; CD64
T7 sequence (P12314 16-374): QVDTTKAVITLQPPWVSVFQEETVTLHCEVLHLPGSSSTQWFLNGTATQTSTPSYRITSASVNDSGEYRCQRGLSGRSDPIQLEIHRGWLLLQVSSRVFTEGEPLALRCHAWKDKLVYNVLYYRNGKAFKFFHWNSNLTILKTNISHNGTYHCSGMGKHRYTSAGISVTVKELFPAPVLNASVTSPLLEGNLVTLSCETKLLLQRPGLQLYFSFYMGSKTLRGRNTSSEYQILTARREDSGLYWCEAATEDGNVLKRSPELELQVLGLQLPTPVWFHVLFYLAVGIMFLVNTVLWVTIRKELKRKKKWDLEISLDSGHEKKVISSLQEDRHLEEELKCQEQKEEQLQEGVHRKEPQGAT
Kind of experiment: flow cytometry, FcγRIa-expressing human monocyte-derived M2c-like macrophages, 15 min.

The target in experiment [9] is T8, mouse OX40 expressed on ExpiCHO-S cells (mouse, UniProt P47741 20-272).
T8 construct: full-length entry; also called OX40mm; wild-type mouse OX40
T8 sequence: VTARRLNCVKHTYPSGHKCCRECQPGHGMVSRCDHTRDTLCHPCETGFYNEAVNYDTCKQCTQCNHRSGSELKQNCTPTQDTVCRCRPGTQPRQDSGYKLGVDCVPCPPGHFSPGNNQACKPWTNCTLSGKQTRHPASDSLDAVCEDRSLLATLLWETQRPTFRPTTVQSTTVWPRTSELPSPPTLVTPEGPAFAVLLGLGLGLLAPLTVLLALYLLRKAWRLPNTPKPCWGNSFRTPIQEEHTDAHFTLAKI
The experiment is described as follows: flow cytometry, transfected ExpiCHO-S cells, gMFI (PE).

Experiment [10] has as its target T9, His-tagged human recombinant FcγRIIIa 176-Phe (Sino Biological, cat. no. 10389-H27H) (human, UniProt P08637 17-208).
T9 construct: also called FcγRIIIa[F]
The experiment is described as follows: SPR, His-tagged FcγR captured on anti-His chip, antibody injected. As to the method:
(§2) Biacore Series S Sensor Chips CM5 (Cytiva, cat. no. 29104988) were covalently coated with anti-His antibody using amine-coupling and His capture kits (Cytiva, cat. no. BR100050 and cat. no. 29234602) according to the manufacturer's instructions. […] After three start-up cycles of HBS-EP+ buffer, antibody samples were injected for 12 cycles per sample to generate binding curves using antibody concentration ranges of 0 to 3,000 nM for FcγRIa and 0 to 10,000 nM for the other FcγRs.
(§3) Dissociation from the anti-His-coated surface was performed by regeneration of the surface using 10 mM Glycine-HCl pH 1.5 (Cytiva, cat. no. BR100354).
For orientation: SPR reads the build-up and loss of mass on a sensor chip optically.

Experiment [11] concerns the target His-tagged human recombinant FcγRIa (Sino Biological, cat. no. 10256-H08S-B) (human, UniProt P12314 16-288). The description is as above. As to the method: as §2, §3
For experiment [12], the target named is T10, His-tagged human recombinant FcγRIIa 167-Arg (Sino Biological, cat. no. 10374-H27H) (human, UniProt P12318 34-218).
T10 construct: also called FcγRIIa[R]
T10 sequence (looked up): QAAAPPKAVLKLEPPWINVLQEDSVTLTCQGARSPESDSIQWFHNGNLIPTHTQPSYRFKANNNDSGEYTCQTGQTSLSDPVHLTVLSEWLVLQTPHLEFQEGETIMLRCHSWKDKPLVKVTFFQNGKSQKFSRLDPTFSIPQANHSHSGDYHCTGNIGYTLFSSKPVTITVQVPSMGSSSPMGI
Described as above. As to the method:
as §2, §3

In experiment [13] the target is T11, His-tagged human recombinant FcγRIIa 167-His (Sino Biological, cat. no. 10374-H08H1) (human, UniProt P12318 34-218).
T11 construct: also called FcγRIIa[H]
T11 sequence (looked up): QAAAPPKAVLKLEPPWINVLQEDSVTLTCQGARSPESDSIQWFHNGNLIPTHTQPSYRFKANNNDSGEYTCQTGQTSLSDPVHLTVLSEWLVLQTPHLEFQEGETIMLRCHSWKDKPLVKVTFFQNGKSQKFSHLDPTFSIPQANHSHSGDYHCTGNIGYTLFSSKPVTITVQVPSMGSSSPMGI
Described as above. How it is done: as §2, §3

The target of experiment [14] is T12, His-tagged human recombinant FcγRIIIa 176-Val (Sino Biological, cat. no. 10389-H27H1-B) (human, UniProt P08637 17-208).
T12 construct: also called FcγRIIIa[V]
T12 sequence (P08637 17-208 F176V limits assumed): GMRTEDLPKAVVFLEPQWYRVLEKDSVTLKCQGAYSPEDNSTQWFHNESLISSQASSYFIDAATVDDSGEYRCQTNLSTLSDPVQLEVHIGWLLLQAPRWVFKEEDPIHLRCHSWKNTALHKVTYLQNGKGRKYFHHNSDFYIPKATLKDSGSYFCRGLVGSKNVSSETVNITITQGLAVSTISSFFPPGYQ
The experiment is described as above. How it is done:
as §2, §3

In experiment [15] the target is T13, His-tagged human recombinant FcγRIIb (Sino Biological, cat. no. 10259-H27H-B) (human, UniProt P31994 43-217).
T13 construct: also called FcγRII2b [sic]
T13 sequence (looked up): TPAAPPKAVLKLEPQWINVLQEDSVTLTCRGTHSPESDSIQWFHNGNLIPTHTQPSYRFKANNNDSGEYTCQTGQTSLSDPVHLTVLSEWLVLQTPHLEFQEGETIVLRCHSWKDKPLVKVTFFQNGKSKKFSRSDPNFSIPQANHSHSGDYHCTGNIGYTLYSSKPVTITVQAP
The experiment is described as above. How it is done:
as §2, §3

Chain of His-tagged human recombinant FcγRIa (Sino Biological, cat. no. 10256-H08S-B) (P12314 16-288 limits assumed, stated change not applied): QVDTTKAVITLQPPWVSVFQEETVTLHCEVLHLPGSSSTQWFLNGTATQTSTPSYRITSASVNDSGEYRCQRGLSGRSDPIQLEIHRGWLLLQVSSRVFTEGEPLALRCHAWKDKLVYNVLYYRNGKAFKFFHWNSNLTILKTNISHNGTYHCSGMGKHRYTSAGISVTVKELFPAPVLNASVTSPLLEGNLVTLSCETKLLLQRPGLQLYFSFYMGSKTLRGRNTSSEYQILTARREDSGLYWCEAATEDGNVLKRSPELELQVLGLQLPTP
T9 sequence (P08637 17-208 limits assumed): as the sequence (P08637 17-208 F176V limits assumed) above, with V160F counted along it

B1: murine Fc-tagged human sOX40L (Sino Biological, cat. no. 13127-H04H) (Fc fusion, UniProt P23510 51-183, looked up)
chain: QVSHRYPRIQSIKVQFTEYKKEKGFILTSQKEDEIMKVQNNSVIINCDGFYLISLKGYFSQEVNISLHYQKDEEPLFQLKKVRSVNSLMVASLTYKDKVYLNVTTDNTSLDDFHVNGGELILIHQNPGEFCVL
notes: bought protein; also called soluble OX40L; not shown: murine Fc tag
As for B1, the binding result in experiment [1] is recorded as “binds”.

B2: IgG1-b12-RR (antibody)
heavy: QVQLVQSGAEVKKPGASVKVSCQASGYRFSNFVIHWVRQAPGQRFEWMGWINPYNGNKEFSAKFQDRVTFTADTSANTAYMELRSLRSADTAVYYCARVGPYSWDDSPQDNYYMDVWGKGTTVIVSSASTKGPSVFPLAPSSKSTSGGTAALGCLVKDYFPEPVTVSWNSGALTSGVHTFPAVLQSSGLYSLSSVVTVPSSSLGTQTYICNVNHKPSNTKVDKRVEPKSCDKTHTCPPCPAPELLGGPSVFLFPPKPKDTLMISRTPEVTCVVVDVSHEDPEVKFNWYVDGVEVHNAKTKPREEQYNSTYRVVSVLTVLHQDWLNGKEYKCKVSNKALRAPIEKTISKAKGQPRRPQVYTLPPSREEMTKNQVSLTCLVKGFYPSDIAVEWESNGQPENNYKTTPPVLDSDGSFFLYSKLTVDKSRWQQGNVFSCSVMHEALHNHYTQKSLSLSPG
VL: EIVLTQSPGTLSLSPGERATFSCRSSHSIRSRRVAWYQHKPGQAPRLVIHGVSNRASGISDRFSGSGSGTDFTLTITRVEPEDFALYYCQVYGASSYTFGQGTKLERK
notes: also called IgG1-b12-P329R-E345R
As to B2, the binding result in [2], in experiment [3], in experiment [4], in [5], in experiment [6] and in [7] was “no binding (tested: 50 µg/mL)” each time. For the same molecule, the binding result was “no binding (tested: 10 µg/mL)” in [8] and “no binding (tested: 50 µg/mL)” in experiment [9].

B3: IgG1-CD134-003-HC6LC2-E345R (antibody)
heavy: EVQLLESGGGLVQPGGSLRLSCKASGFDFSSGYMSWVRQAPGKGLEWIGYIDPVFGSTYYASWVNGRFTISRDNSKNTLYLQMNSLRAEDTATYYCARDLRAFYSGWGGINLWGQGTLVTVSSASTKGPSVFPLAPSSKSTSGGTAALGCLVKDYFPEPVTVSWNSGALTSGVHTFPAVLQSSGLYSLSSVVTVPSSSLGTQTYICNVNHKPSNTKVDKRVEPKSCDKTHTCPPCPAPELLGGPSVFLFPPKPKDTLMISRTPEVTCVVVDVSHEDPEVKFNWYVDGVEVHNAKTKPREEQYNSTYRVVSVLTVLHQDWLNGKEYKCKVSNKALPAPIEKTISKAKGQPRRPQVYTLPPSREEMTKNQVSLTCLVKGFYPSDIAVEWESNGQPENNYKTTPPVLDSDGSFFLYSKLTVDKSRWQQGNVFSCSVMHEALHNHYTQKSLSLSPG
light: AAVLTQSPSSLSASVGDRVTITCQSSQIVVNNNFLSWYQQKPGKAPKLLIYDASNLASGVPDRFSGSGSGTDFTFTISSLQPEDIATYYCLGGYDDDAENAFGGGTKVEIKRTVAAPSVFIFPPSDEQLKSGTASVVCLLNNFYPREAKVQWKVDNALQSGNSQESVTEQDSKDSTYSLSSTLTLSKADYEKHKVYACEVTHQGLSSPVTKSFNRGEC
notes: also called variant of IgG1-CD134-003-HC6LC2-RR without Fc-inertness mutation; copies: 2 + 2
Turning to B3, the binding result in [10], in experiment [11], in experiment [12], in experiment [13], in experiment [14] and in experiment [15] was “binds” each time.
